Test [1] has as its target human TfR extracellular domain with N-terminal His tag (human) (UniProt P02786). The test is described as follows: SPR, bispecific antibody. For orientation: SPR reads the build-up and loss of mass on a sensor chip optically.
In test [2] the target is cyno TfR extracellular domain (analogous construct to human TfR ecd) (cynomolgus monkey). The test can be described thus: SPR, bispecific antibody.
Sequence of cyno TfR extracellular domain (analogous construct to human TfR ecd) (cynomolgus monkey) (Q5RDH6 other isoform, or with tags, fused parts or gaps): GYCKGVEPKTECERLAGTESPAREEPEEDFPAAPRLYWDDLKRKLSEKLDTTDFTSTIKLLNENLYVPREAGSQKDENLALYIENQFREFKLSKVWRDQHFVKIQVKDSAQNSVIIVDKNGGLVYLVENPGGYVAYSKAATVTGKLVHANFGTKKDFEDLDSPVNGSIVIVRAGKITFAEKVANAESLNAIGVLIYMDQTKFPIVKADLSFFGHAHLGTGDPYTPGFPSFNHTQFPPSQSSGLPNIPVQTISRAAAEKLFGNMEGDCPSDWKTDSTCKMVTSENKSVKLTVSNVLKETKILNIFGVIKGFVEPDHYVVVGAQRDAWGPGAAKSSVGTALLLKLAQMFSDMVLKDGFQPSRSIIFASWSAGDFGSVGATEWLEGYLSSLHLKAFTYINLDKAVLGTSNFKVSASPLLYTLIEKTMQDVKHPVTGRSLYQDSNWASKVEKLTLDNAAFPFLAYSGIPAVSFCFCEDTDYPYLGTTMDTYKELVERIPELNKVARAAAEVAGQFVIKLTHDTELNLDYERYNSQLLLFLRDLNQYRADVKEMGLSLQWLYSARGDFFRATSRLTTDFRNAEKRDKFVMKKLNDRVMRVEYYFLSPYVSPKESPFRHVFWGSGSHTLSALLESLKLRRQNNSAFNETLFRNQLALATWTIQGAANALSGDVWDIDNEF

Sequence of human TfR extracellular domain with N-terminal His tag (human) (P02786 89-760 G142S): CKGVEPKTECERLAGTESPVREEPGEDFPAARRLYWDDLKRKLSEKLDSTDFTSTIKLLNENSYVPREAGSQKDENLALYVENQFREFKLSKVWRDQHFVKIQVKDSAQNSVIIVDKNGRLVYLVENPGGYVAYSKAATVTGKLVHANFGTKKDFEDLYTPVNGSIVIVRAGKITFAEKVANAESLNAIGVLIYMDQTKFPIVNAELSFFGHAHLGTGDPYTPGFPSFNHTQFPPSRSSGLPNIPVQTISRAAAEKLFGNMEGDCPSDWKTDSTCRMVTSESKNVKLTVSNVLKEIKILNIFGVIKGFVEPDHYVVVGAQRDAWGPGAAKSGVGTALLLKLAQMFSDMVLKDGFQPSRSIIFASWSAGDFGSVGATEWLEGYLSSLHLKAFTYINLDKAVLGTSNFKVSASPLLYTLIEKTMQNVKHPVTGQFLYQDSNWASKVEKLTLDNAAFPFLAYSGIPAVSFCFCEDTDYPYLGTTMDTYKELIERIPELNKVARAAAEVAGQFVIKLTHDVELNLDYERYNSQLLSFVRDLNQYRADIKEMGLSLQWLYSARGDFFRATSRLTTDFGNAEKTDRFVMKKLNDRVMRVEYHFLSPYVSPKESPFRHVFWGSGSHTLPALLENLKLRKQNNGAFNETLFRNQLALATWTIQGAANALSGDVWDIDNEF

B1: anti-TfR^53A/BACE1 bispecific antibody (15G11.T53A arm) (bispecific antibody, part only; not given: anti-BACE1 arm and constant regions, V domains shown, not shown: another chain or arm of the molecule; a dimerising Fc or GST; small tags and cut ends)
VH: EVQLVQSGAEVKKPGASVKVSCKASGYTFTSYWMHWVRQAPGQRLEWIGEINPANGRTNYIEKFKSRATLTVDKSASTAYMELSSLRSEDTAVYYCARGTRAYHYWGQGTMVTVSS
VL: DIQMTQSPSSLSASVGDRVTITCRASDNLYSNLAWYQQKPGKSPKLLVYDATNLADGVPSRFSGSGSGTDYTLTISSLQPEDFATYYCQHFWGTPLTFGQGTKVEIK
In general, Kd refers to the free concentration of one partner at which half of the binding sites on the other are occupied at equilibrium, for simple one-to-one binding. As for B1, the dissociation constant Kd worked out at 24 nM in test [1] and 143 nM in test [2].

The values above are taken from patent US20180057604A1.
